# Reference: paper PMC4627693
# System: Cys-Srctide (Biotin-ZZICGEFRRR)
# Assay: cross-linking
substance,measurement,value
c-Src tyrosine kinase (recombinant),percent conversion to crosslinked product,40% conversion in 25 minutes
